# Publication PMC3672086, “TWEAK-Independent Fn14 Self-Association and NF-κB Activation Is Mediated by the C-Terminal Region of the Fn14 Cytoplasmic Domain” (PLoS ONE, 2013)
# B1: myc epitope-tagged Fn14 extracellular domain deletion (Fn14-ΔEC) (receptor, human, UniProt Q9NP84 28-129, looked up)
# chain: EQAPGAAAPPAPFRLLWPILGGALSLTFVLGLLSGFLVWRRCRRREKFTTPIEETGGEGCPAVALIQ
# notes: human Fn14 splice variant (exon 2 skipped), 94-aa precursor missing amino acids 33-67 of the extracellular domain; mature myc-tagged protein 77 aa; Cloned from U87-luc cell mRNA; natural splice variant mRNA, endogenous protein not detected by the authors; also called ΔEC mutant; short Fn14 isoform; source: HEK293 or HEK293/NF-κB-luc/Fn14-HA cells, transiently transfected (pcDNA6/Fn14-ΔEC), on …
# Biological target: the molecule itself
# Experiment: cross-linking; cell surface proteins of transfected HEK293/NF-κB-luc/Fn14-HA cells cross-linked with 1 mM BS3 in PBS, 20 min, room temperature; lysis in HNTG buffer, reducing SDS-PAGE, anti-myc Western blot
protein,measurement,value
B1,stoichiometry N,2
